From publication PMC7515959, “Imaging angiogenesis in patients with head and neck squamous cell carcinomas by [^68Ga]Ga-DOTA-E-[c(RGDfK)]2 PET/CT” (European Journal of Nuclear Medicine and Molecular Imaging, 2020)

Assays:
[1] = set-up: species or system human; details: in vivo
Procedure: (§1) Included patients had no restrictions in food or medication intake. ^68Ga-RGD was administered intravenously using a slow bolus injection of 8 ml over 40 s (200 ± 29 MBq; range 119–218 MBq, 42 ± 8 μg; range 34–58 μg). The net injected dose was calculated by measuring the syringe before and after ^68Ga-RGD administration using a dedicated dose calibrator (VDS-405, Comecer, Joure, The Netherlands). Patients were monitored for (severe) adverse events according to the Common Terminology Criteria for Adverse Events, version 4.03. Venous blood samples at 1, 2, 5, 10, 30 and 90 min after injection were taken for pharmacokinetic and safety analysis. The concentration of ^68Ga-RGD in the blood samples (Bq/ml) was calculated by gamma counter (Wizard Detector Gamma Counter, PerkinElmer Inc., Waltham, MA, USA) while simultaneously measuring 1% standards. Safety analysis included a complete blood count test and assessment of kidney and liver function by measuring the eGFR (MDRD), total bilirubin and aspartate aminotransferase and alanine aminotransferase levels.

[2] = set-up: species or system human; details: in vivo; remark: listed apart in the source
Procedure: as §1, with “[…] The biological half-life of ^68Ga-RGD was calculated using bi-exponential regression” for “Safety”, “in MATLAB version R2014b (MathWorks, Natick, MA, USA). The analyses of optimal imaging time point and uptake values were analysed using SPSS Statistics, version 22.0.0.1 (IBM), with” for “included”, “one-way ANOVA followed by a Bonferroni post hoc” for “complete blood count”, “to adjust for multiple comparisons. […]” for “and assessment of kidney and liver function by measuring the eGFR (MDRD), total bilirubin and aspartate aminotransferase and alanine aminotransferase levels.”

[3] = set-up: species or system human; details: in vivo; remark: listed apart in the source
Procedure: Five patients underwent three static whole-body PET/CT at 30, 60 and 90 min post injection on a Biograph 40 mCT scanner (Siemens Medical Solutions, Knoxville TN, USA) equipped with a dual-slice CT for 4 min of PET data per bed position, with bed positions from the base of the skull to trochanter major. For each PET/CT image, two image reconstructions were used, with a TrueX algorithm with point spread function (PSF) and time of flight (TOF) measurements, using three iterations, 21 subsets, matrix size 256 × 256 (pixel spacing of 3.2 mm) or 200 × 200 (pixel spacing of 4.07 mm), full width at half maximum (FWHM) of 5 mm. Post-processing was performed using a 3D Gaussian filter kernel, 7.5 or 3 mm. […]
All ^68Ga-RGD PET/CT scans were evaluated by two experienced nuclear medicine physicians (WJGO, EHJGA) on a dedicated workstation (Oasis software, Segami Corporation, Columbia, MD, USA) with a PET/CT viewer for automatic image registration. […]
Numerical data are presented as mean ± standard deviation (SD). […] The biological half-life of ^68Ga-RGD was calculated using bi-exponential regression analysis in MATLAB version R2014b (MathWorks, Natick, MA, USA). The analyses of optimal imaging time point and uptake values were analysed using SPSS Statistics, version 22.0.0.1 (IBM), with a one-way ANOVA followed by a Bonferroni post hoc test to adjust for multiple comparisons. […]

αvβ3 integrin [4] = target: T1, αvβ3 integrin (Homo sapiens, UniProt P05106+P06756); assay: clinical; details: in vivo
T1 construct: integrin αvβ3 predominantly expressed in endothelial cells of tumour-associated blood vessels; from tissue; host or cells: tumour lesions and lymph nodes of living patients with oral squamous cell carcinoma (in vivo PET/CT)
T1 sequence (P06756 31-889 limits assumed): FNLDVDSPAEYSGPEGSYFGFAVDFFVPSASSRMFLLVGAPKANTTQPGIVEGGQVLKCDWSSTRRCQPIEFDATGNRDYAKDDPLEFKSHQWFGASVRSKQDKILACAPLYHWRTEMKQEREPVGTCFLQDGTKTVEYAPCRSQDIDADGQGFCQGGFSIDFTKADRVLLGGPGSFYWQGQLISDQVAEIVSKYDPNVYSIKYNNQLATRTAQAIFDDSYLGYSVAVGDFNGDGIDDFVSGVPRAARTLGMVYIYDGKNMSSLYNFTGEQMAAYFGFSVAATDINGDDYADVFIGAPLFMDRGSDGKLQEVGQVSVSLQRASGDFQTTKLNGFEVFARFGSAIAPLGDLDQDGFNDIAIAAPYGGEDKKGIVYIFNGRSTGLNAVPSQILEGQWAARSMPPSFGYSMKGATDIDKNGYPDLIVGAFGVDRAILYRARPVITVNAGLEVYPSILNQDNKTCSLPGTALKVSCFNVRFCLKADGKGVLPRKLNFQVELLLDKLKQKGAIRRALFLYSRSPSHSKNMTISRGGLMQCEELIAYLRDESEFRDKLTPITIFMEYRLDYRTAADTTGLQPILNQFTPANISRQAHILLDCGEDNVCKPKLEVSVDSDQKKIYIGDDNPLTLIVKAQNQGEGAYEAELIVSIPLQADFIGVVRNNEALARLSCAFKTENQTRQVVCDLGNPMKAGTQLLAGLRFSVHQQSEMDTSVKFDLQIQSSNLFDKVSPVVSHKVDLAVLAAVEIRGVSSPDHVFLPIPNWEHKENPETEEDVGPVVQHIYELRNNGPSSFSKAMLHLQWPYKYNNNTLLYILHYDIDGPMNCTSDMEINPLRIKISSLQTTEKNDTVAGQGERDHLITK
T1 sequence (P06756 891-1048 limits assumed): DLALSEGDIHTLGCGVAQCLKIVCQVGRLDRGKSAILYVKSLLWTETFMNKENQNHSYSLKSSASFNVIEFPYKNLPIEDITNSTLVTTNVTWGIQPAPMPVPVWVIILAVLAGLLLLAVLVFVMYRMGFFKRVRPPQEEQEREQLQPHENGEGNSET
T1 sequence (P05106 27-788): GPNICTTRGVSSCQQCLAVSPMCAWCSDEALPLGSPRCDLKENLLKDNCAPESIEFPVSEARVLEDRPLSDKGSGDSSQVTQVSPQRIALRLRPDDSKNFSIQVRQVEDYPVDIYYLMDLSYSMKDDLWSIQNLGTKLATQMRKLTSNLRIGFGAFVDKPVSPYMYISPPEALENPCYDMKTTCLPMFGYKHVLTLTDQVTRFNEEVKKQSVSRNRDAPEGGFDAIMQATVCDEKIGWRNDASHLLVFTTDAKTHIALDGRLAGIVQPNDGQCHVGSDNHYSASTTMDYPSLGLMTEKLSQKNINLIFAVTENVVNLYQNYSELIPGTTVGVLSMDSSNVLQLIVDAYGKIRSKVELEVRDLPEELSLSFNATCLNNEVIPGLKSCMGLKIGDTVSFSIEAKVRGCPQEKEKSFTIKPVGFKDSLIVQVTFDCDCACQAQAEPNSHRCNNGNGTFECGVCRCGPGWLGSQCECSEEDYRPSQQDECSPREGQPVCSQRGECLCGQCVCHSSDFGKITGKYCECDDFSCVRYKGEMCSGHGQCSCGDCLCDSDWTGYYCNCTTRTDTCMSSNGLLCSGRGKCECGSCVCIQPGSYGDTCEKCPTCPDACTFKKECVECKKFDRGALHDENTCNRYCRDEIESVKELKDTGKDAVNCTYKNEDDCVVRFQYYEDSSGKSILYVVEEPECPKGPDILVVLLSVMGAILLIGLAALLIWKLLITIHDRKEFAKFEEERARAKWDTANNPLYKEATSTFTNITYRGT
Procedure: as §1
(§2) Five patients underwent three static whole-body PET/CT at 30, 60 and 90 min post injection on a Biograph 40 mCT scanner (Siemens Medical Solutions, Knoxville TN, USA) equipped with a dual-slice CT for 4 min of PET data per bed position, with bed positions from the base of the skull to trochanter major. For each PET/CT image, two image reconstructions were used, with a TrueX algorithm with point spread function (PSF) and time of flight (TOF) measurements, using three iterations, 21 subsets, matrix size 256 × 256 (pixel spacing of 3.2 mm) or 200 × 200 (pixel spacing of 4.07 mm), full width at half maximum (FWHM) of 5 mm. Post-processing was performed using a 3D Gaussian filter kernel, 7.5 or 3 mm. The other five patients underwent 60 min dynamic ^68Ga-RGD PET/CT starting at start of injection, of the head and neck region (15 cm FOV), to obtain time–activity curves in malignant lesions. These images were reconstructed in 33 frames ([…], 10 × 5 s, 3 × 10 s, 2 × 15 s, 5 × 30 s, 5 × 120 s, 5 × 300 s and 2 × 600 s). For all patients, a low-dose CT scan was acquired for attenuation correction and anatomical reference, with an automatically modulated X-ray tube voltage and current (100 kV, 30 mA) using Care kV and Care Dose4D (Siemens Healthcare), 512 × 512 voxels; 0.98 pixel spacing; 3 mm slice thickness; 1 pitch. The CT images for anatomical reference were reconstructed with a B31f convolution kernel, slice thickness 5 mm.
(§3) All ^68Ga-RGD PET/CT scans were evaluated by two experienced nuclear medicine physicians (WJGO, EHJGA) on a dedicated workstation (Oasis software, Segami Corporation, Columbia, MD, USA) with a PET/CT viewer for automatic image registration. A volume-of-interest (VOI) around the tumour mass was manually drawn to obtain a maximum standardised uptake value (SUVmax) of the tumour area—drawn on the static PET/CT image acquired 60 min post injection—and to determine the 41% SUVmax isocontour and SUVpeak (highest mean SUV value of 1 cm^3) within this tumour volume. The same analysis was applied on the dynamic imaging series, in which a reconstructed frame of 4 min (56–60 min p.i.) was extracted from the dynamic imaging series to obtain a static image for tumour volume delineation. The dynamic imaging series were also used to obtain time–activity curves using the PMOD Medical Imaging Program version 3.15 (PMOD technologies LLC, Zürich, Switzerland). Curves were estimated for both tumour lesions and background tissue. Tumour delineation was based on the evaluation in Oasis (Oasis software, Segami Corporation, Columbia, MD, USA), drawn on the last frame of the PET series, and subsequently copied to the other frames. For time–activity curves of the muscle, a VOI of 1.5 ml was defined in dorsolateral musculature (contralateral to the tumour) using the CT images and subsequently copied to the dynamic dataset. […]

clinical = details: human, in vivo, iv, SUVmax tumour
Procedure: as §1, §2, §3

αvβ3 integrin [5] = tested on: T2, αvβ3 integrin; assay: clinical; details: human, in vivo, iv, 200 MBq, total radioactivity
T2 construct: integrin αvβ3 predominantly expressed in endothelial cells of tumour-associated blood vessels; from tissue; host or cells: tumour lesions and lymph nodes of living patients with oral squamous cell carcinoma (in vivo PET/CT)
Procedure: as §1, §2, §3

## N=C(N)NCCC[C@@H]1NC(=O)[C@H](CCCCNC(=O)CC[C@H](NC(=O)CN2CCN(CC(=O)O)CCN(CC(=O)O)CCN(CC(=O)O)CC2)C(=O)NCCCC[C@@H]2NC(=O)[C@@H](Cc3ccccc3)NC(=O)[C@H](CC(=O)O)NC(=O)CNC(=O)[C@H](CCCNC(=N)N)NC2=O)NC(=O)[C@@H](Cc2ccccc2)NC(=O)[C@H](CC(=O)O)NC(=O)CNC1=O [^68Ga-RGD, [^68Ga]Ga-DOTA-E-[c(RGDfK)]2, metal not drawn]
[1]
  laboratory values: within normal ranges
  vital signs and (serious) adverse events: no changes in vital signs nor any (serious) adverse events
[2]
  elimination half-life: 23.0 ± 2.3 min
  uptake by blood cells (whole blood versus plasma concentration): not taken up by the blood cells
[3]
  distribution half-life (t1/2α): 0.14 ± 0.07 min
αvβ3 integrin [4]
  SUVmax in lymph nodes with radiotracer uptake, range: 1.8-7.6
  time after injection at which plateau phase was reached in tumour tissue: 15 min
  time after injection at which tracer accumulation in tumour tissue plateaued: 10 min
  tumour-to-muscle tissue ratio (mean): 6.4 ± 0.7
clinical
  SUV at 1 h: 6.5 SUV
αvβ3 integrin [5]; mean SUVmax in lymph nodes with radiotracer uptake
  SUV: 4.4 ± 2.3 SUV
αvβ3 integrin [5]; mean SUVmax in tumour tissue
  SUV at 0.5 h: 5.7 ± 0.8 SUV
  SUV at 1 h: 5.5 ± 1.2 SUV
  SUV at 1.5 h: 4.8 ± 1.2 SUV
